For experiment [1], the target named is human CD40 on the cell surface (Raji cells, HEK-Blue CD40L cells, primary human B cells and DCs) (human) (UniProt P25942). As to the kind of experiment: flow cytometry (FACS) binding to Raji cells. (In general: Flow cytometry measures light scatter and fluorescence of single cells or particles in a stream.)
For experiment [2] the target is unchanged. As to the kind of experiment: flow cytometry (FACS) binding to Raji cells. The source holds these as a separate data set.
For experiment [3] the target is unchanged. Description: cell-based or functional assay.
Experiment [4] addresses his-tagged human CD40 recombinant protein (h-CD40-his, Acrobiosystems Cat. #CD0-H5228) (human) (UniProt P25942). Description: SPR (Biacore), antibody captured on anti-human Fc chip, His-tagged CD40 as analyte, 1:1 model. A general note: In SPR one partner is held on a chip, and binding of the other changes the refractive index at the surface.

Like-named read-outs stand apart in the source and are kept apart here.

human CD40 on the cell surface (Raji cells, HEK-Blue CD40L cells, primary human B cells and DCs) (human), sequence (P25942 21-277): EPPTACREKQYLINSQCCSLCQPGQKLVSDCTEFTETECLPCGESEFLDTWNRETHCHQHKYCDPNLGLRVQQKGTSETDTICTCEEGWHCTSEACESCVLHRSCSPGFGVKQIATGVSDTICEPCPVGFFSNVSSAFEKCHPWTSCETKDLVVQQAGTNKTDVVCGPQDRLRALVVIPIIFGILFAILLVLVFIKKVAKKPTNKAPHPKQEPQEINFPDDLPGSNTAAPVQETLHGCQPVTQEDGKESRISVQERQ
his-tagged human CD40 recombinant protein (h-CD40-his, Acrobiosystems Cat. #CD0-H5228) (human), sequence (P25942 21-193 limits assumed): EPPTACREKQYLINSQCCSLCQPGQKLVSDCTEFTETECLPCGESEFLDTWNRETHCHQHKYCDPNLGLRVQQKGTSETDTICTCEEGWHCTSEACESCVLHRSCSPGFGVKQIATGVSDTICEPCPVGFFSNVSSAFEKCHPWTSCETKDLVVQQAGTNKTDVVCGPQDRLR

As a reminder, the EC50 is the concentration giving half of the maximal effect. As usually defined, the Kd is the equilibrium constant for the complex coming apart. For orientation: koff means the first-order rate constant of dissociation. By kon is commonly meant a measure of how fast the partners come together. Substance “CFZ533 (iscalimab), anti-CD40 antagonistic antibody, positive control” came in with an EC50 in experiment [1] of 1.01 nM. The substance further came in with an EC50 in experiment [2] of 2.41 nM. In experiment [3], the B cell activation assay, CD19+CD69+ %, IC50 is 0.14 nM; the B cell activation assay, CD19+CD69+ %, maximum inhibition rate turned out to be 95%; the B cell activation assay, CD19+CD69+ MFI, IC50 stood at 0.07 nM; the B cell activation assay, CD19+CD69+ MFI, maximum inhibition rate was determined as 110%. In experiment [3], this substance gave an IC50 for the inhibition of CD40 reporter gene cell activity (Experiment 1) of 0.36 nM; an IC50 for the inhibition of CD40 reporter gene cell activity (Experiment 2) of 0.35 nM; an IC50 in DC cell activation assay system, CD80 MFI of 1.19 nM; an IC50 in DC cell activation assay system, CD86 MFI of 1.93 nM. In experiment [3], this substance had an IC50 in DC cell activation assay system, IL-12/23 p40 of 0.68 nM; an IC50 in DC cell activation assay system, TNFα of 0.35 nM; a Reporter gene cell activity IC50 (SEAP, HEK-Blue CD40L cells stimulated with CD40L) of 0.272 nM. Besides, in experiment [4], the Kd is 0.205 nM, the koff is 0.000141 s⁻¹ and the kon was determined as 688000 M⁻¹ s⁻¹.
